Columns and labels:
Experiment in all cases: other fluorescence titration; Ca2+ titration at saturating CaM: 0.5 µM FRET biosensor, 2 µM X-Rhod5F, 0.1 mg/mL BSA, 0.25 mM Br2BAPTA (3 mM BAPTA and 700 µM CaM for the SMD1 biosensors), 25 mM Tris, 100 mM KCl, pH 7.5, 22°C; start nominally Ca2+-free; free Ca2+ from X-Rhod5F; EC50(Ca2+) from Hill fits
BSGPER_(150–175) (human) = BSGPER_(150–175) (human) (UniProt Q99527)
BSGPER_(242–259) (human) = BSGPER_(242–259) (human) (UniProt Q99527)
BSGPER_(330–351) (human) = BSGPER_(330–351) (human) (UniProt Q99527)
BSGPER_(83–93) (human) = BSGPER_(83–93) (human) (UniProt Q99527)

EC50(Ca2+) of complex formation (BSGPER_(150–175) (human)): 2.38 µM
EC50(Ca2+) of complex formation (BSGPER_(242–259) (human)): 5.15 µM
EC50(Ca2+) of complex formation (BSGPER_(330–351) (human)): 0.75 µM
EC50(Ca2+) of complex formation, species 1 (BSGPER_(83–93) (human)): 0.13 µM
EC50(Ca2+) of complex formation, species 2 (BSGPER_(83–93) (human)): 3.71 µM
Substance: Calmodulin (CaM), recombinant, from the rat CaMI gene (from UniProt P0DP29 1-149) (natural protein)
